# In US20030059827A1, “Engineered protein binding domains and methods and systems for their design and use” (priority 2001, published 2003):
# B1: wild-type PDZ (PDZ3 of PSD095) domain, Q62108 302-402 (protein, mouse, UniProt Q62108 302-402, looked up)
# chain: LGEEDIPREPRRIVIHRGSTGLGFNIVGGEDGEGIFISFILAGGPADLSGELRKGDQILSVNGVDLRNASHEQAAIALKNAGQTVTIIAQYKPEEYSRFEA
# Target: Biotin-GG-KQTSV
# Experiment: micro-calorimetry (isothermal titration)
binder,measurement,value
B1,Ka,25700 M⁻¹
same,Kd,39 µM
